Laboratory results from publication PMC8725002, “Crystal structure of a putative short-chain dehydrogenase/reductase from Paraburkholderia xenovorans” (Acta Crystallographica. Section F, Structural Biology …, 2022).

Experiments:
[1] = target: the molecule itself; assay: SEC; Superdex 75, 25 mM HEPES pH 7.0, 500 mM NaCl, 5% glycerol, 2 mM DTT, 0.025% azide; second step of the purification; single large peak at ~76 kDa; self-association
[2] = target: the molecule itself; assay: crystal structure; apo PxSDR, space group P2(1), 1.45 Å; sitting drop, 0.2 M magnesium chloride, 0.1 M bis-Tris pH 5.5, 25% PEG 3350, 287 K; self-association: tetramer

B1: putative short-chain dehydrogenase/reductase from Paraburkholderia xenovorans (His-PxSDR) (enzyme)
chain: MSSAGRLQGKVALVTGAGCIGPGWGNGRAIAVRFAEEGAHVIAVDRDLASMDATLELVRAAGGSVTPCLCDVTDSASVERLVADSVARCGRVDILVNNVGAPSPGGPVALDEAQWAMQLELNLTTAFLMCKYVLPVMEQQGGGAIVNIASTSGIRWTGAAQVGYAAAKAGMIQMGRVVAVEYAAKNVRVNSVVPGLLHTPMVDTKIAHNQAGGDVELLLRKRQARIPMPFMGDGRDTANAALFLASDEARFVTGTEIVVDGGMSARCD
notes: putative short-chain dehydrogenase/reductase (PxSDR), Paraburkholderia xenovorans strain LB400, UniProt Q13GE3, full length, amplified from genomic DNA; copies therefore left empty; also called P. xenovorans SDR; putative short-chain reductase; source: E. coli BL21(DE3)R3 Rosetta, purified (IMAC on Ni-NTA HisTrap FF, SEC on Superdex 75)
B1 was tested. Which “stoichiometry N” value [1] did it give?
The value was 2.

What about the “stoichiometry N” value [2] of the same protein?
The value was 4.
